{"source": "paper PMC3206007", "about": "“Crystal Structure of the Complex mAb 17.2 and the C-Terminal Region of Trypanosoma cruzi P2β Protein: Implications in Cross-Reactivity” (PLoS Neglected Tropical Diseases, 2011)", "binders": {"B1": {"name": "murine monoclonal antibody 17.2 (antibody, V domains shown)", "VH": "EVQLEESGGRLVQPKGSLKLSCAASGFSFNTNAMNWVRQAPGKGLEWVARIRSKINNYSTYYADSVKDRFTISRDDSQSMLYLQMNNLKTEDTAMYYCVRGTTYWGQGTLVTVSA", "VL": "not shown", "notes": "variable and CH1 domains as the heavy chain of m1 (PDB 3SGE, 3SGD); the rest is the mouse IgG1 constant region, not in the entries; as the light chain of m1 (kappa; PDB 3SGE, 3SGD); Whole IgG1, kappa; also called mAb 17.2; source: purified from ascitic fluid (40% ammonium sulphate, DEAE-Sephacel)"}}, "target": "T1, human β1 adrenergic receptor (Homo sapiens, UniProt P08588)", "T1 construct": "also called β1-AR; ß1-AR; source: HEK cells, stably transfected (HEK-β1), on cells", "T1 sequence (P08588 whole entry)": "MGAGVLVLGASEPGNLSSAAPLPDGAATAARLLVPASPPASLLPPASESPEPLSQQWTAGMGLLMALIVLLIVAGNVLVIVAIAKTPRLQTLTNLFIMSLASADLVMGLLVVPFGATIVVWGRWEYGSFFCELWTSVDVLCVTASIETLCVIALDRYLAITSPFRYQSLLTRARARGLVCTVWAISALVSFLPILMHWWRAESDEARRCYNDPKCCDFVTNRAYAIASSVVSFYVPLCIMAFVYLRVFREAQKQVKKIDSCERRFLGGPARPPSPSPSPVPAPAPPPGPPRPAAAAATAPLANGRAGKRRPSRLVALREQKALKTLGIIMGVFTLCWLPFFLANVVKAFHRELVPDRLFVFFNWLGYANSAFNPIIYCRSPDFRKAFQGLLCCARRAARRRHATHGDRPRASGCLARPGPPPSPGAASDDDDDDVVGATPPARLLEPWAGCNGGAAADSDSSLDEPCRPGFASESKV", "test": "flow cytometry on cells; HEK and HEK-β1 cells incubated with mAb 17.2 (500 nM) 1 h at room temperature in supplemented DMEM; Cy3-conjugated goat anti-mouse IgG; propidium iodide to exclude dead cells", "settings": "one partner purified"}
{"binder": "B1", "values": [{"measurement": "binding result", "result": "binds"}]}
